Results as given in the nanobody polyreactivity screen of Harvey et al. (2022).

Assay: yeast display, Sf9 membrane polyspecificity reagent, FACS + sequencing; frameworks hold sequencing errors
Outline: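 Synthetic nanobody libraries on Saccharomyces cerevisiae BJ5465 were galactose-induced for 36–48 hours, stained 1 hour at 4 °C with 10% biotinylated, detergent-solubilized Sf9 membrane reagent and enriched on streptavidin microbeads. FACS then separated cells into low and high (top ~1%) gates by anti-HA (expression) and streptavidin (reagent binding) fluorescence. Genes were colony-PCR amplified, MiSeq 2 × 250 sequenced and CDR-length filtered. A clone's polyreactivity label is that of its gate of origin.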

Sequence | polyreactivity (PSR sort gate)
QLQLVESVGGLVQAGGSLRLSCASSGLIFYVSAMGSYRQAPGKERELVAAITSSGASTYYADSVKGRFTISRDNAKNTVYLQMNSLKPEDTAVYYCAGRYAGGRRAYGYWGQGTQVSVSS | high polyreactivity
QVQLVESGGGLVQAGGSLRLSCASSGRTFTPYAMGWSTQAPGKERELVAAISRRAGTTYYADSVKGRFTISRDKAKNYGFLQMNRLKPEETEVYYCAALTESSSYGYWGQGTQVNVSS | low polyreactivity
QVQLQESGGGLEQAGVSLRLSCAASGYISDIGTMGWYRQAPGKEREFVATIVVGSTTNYADSVKGRFTISRDNAKNTVYLQPESGRYRGVLLRGWLLAVGIFTYWGQGTQETVSS | low polyreactivity
QVQLVESGGGLVQAGGSLRLSCAASGYIFVYNSMGWYRPAPGKERELVAVINYSGSSTYYADSVKGRFPISRDNAKNTVYLQMNSLKPEDTAVYYCNALRRESLEDEYWGQGTQVTVSS | high polyreactivity
QVQLVESGGGLVQAGGSLRLSCAASGSIFDYNAMGWYRQAPGKERELVAAITYSGGTTYADSVKGRFTISRDNAKNTVYLQMNSLKPEDTAVYYCNADVYRWSGSYTGWDSWHDYWGQGTQVTVSS | low polyreactivity
QVQLVESGGGLVQAGGSIRLSCAASGRTFDGNALGWYRKAPGKERELVAAITSGGSTNYAYSVKGRFTISRDNAKNTVYVQRNSLKPEDTAVYYCAAERWYGYSHSDFGYWGQGTQVTVSS | high polyreactivity
QVQLVESGGGLVQAGGSLRLSCAASGSTFGYYAMGWYRQAPGKERELVAAITWSGGSTSYADSVKGRFTISRENAKNSVYLQMNSLKPEDTAVYYCAAQYKKGRGAKRTYYGGWLEYCGQGTQVTVSS | low polyreactivity
QVQLVESGGGLVQAGGSLSLSCAASGLTFAKNAMGWYRQAPGKERELVAVITSSGGSTYYADSVKGRFTISRDNAKNTVYLQMNSLKPEDTAVYYCNVAYYDRSRSTGYEYWGQGTQVTVSS | high polyreactivity
QVQLVESGGGLVQAGGSLRLSCAASGRIIAYYAMGWYRQAPGKERELVAGINSGGGSTYYADSVKGRFTISRDNAKNTVYLQMNSLKPEDTAVYYCAARAGGVDGYDYWGQGTQVTVSS | high polyreactivity
QVQLVESGGGLVQAGGSLRLSCAASGLIFYQYAMGWYRQAPGKESELVAAISRSGGRTNYADSVKGRFTISRDNAKNTVYLQMNSLKPEDTAVYYCNAVHYFLYGYYSWGQGTQVSVSS | high polyreactivity
QVQLVESGGGLVQAGGSLRLSCAASGFTLPANGMGWYRQAPGKERELVAAISFIAGSTYYADSVKGRFTISRDNAKNTVYLQMNSLKPEDTAVYYCATQFPPSTIYYYWGQGTQVTVSS | low polyreactivity
QVQLVESGGRLVKAGGSLRLSCAASGRTFSSYAMGWYRHAPGKERELVAAISSGGSTYYADSVKGRFTISRDNAKNTVYILMNSQIPEDTAVYYCNRRLYYKIGRGFSYYWGQGTQVTVSS | high polyreactivity
QVQLVESGGGLVQAGGSLRLSCAASGSILVGYAMGRYRLAPGKERELVAAISFSGGSTYYADSVKGRFTISRDNAKNTVYLQMNRLKQEDTAVYYCAAKRRVWIFYSSSDDYWGQGSQVTVSS | low polyreactivity
QVQLVESGGGLVQAGGSLRLSCAASGSTFVFYAMGWYRQAPGKERELVAGISDSGGNTYYADSVKGRFTISRDNAKNTVYLQMNSLKPEDTAVYYCATRYPYYPFYVGIYELDYWGQGTQVTVSS | low polyreactivity
QVQLVESGGGLVQAGGSLRVSCAASGIIFYGYAMGWYRQAPGKEMELVAVITSGGSTNYADSVKGRFTISRDNAKNTVYLQMNSLKPEDTAVYYCAAKYHYFGFRYDYWGQGTQVTVSS | high polyreactivity
QVQLLESGGGLVQAGGSLRLSCAASGSIFTEYAMGWYRQAPGKERELVAAITYSGGSTYYADSVKGRFTISRDNAKNTVYLQMHSLKPDDTAVYYCNADYRIYVAYYYWGQGTQVTVSS | low polyreactivity

Sequence | polyreactivity (PSR sort gate)
QVQLVESGGGLVQAGGSLRLSCAASGQKFEYNAMVWYRQAPRKERELVAVITYTYYADSVKGRFTISRDNAKNTVYLLMNCLKPEATAVYYCAVLYSEEILRNDNGVRFDYWGQGTQVTVSS | low polyreactivity
QVQLVESGGGLGQAGGSLRLSCAASGRIFIDYAMGWYRQAPGKERELVAAITYSTGGTYYGDSVKGRFTISRDNAKNTVYLQMNSLKPEDTAVYYCNATYVWPGRRRDGYWGQGTQVTVSS | low polyreactivity
QVQLVESGGGLVQAGGSLRISCAASGFTYSSYAMGWYRQATGKERELVAAISTRGGSTYYADSVKGRFTISRDNAKNTVYLQMNSLKPEDTAVYYCSTGGRGGRRYEYWGQGTQVTVSS | low polyreactivity
QVQLVESGGGLVQAGGSLRLSCAASGYTFFTNAMGWYRQAPGKEREFVAAISKSGGNTYYADSVKGRFTISRDNAKNTVYLQMNSRKPEDTAVYYCAAQHRGYAGPRPYYYWGQGTQVTVSS | high polyreactivity
QVQLVESGRGLVQAGGSLRLSCAASGSIFISYAKGWYRQAPGKERELVAAITWSGDSTYYADSVKGRFTISRDNAKNTVYLQMNSLKPEDTAVYYCAKGQSRSLIYGRYGYWGQGTQVTVSS | low polyreactivity
QVQLVESGGGLVQAGGSLRLSCAASGRIFGVYAMGWYRQAPGKERELGAALSEGGGSTNYADSVKGRFTISRDNAKNTVYLQMNSLKPEDTAVDYCAATSRTGVRRYYSWGQGTQVTVSS | low polyreactivity
QVQLVESGGGLVQAGGSLRLICAASGRIFYYYTMGWYRQAPGKERELVDTIRSGGSTYYADSVKGRFTISRDNAKNTVYLQMNSLKPEDTAVYYCAAAYRTGRGYGFDYWGQGTQVTVSS | high polyreactivity
QVQLVESGGGLVQSGGSLRLSCAASGSIFGSNAMGWYRQAPGKERELVAAISRSGTSTYYADSVKGRFTISRDNAKNTVDLQMTSLKPEDSAVYYSNTAQRYRVYRYDYWGQGTQVTVSS | high polyreactivity
QVQLVESGGGLVQAGGSLRLSCAASGSIFYRNTMGWYRQATGKERELVARISNGGSTNYADSVKGRFTISRDNAKNTVYLQMNSLKPEDTAVYYCNARRGSATHSVTARRGYWGQGTQVTVSS | high polyreactivity
QLQLVESGGGLVQAGGSLRLSSAASGSIFYEYTMGWYRQAPGKEREVVAVITSGGTTNYADSVKGRFTISRDNANNTDYLQMNSLKPEDTAFYYCNAVYRTSFQRGGGYWGQGTQVTVSS | high polyreactivity
QVQLVESGGGLVQAGGSLRLSSAASGFTFDYYAMGWYRQAPGKERELVAAISTSGGSTYYADSVKGRFTISRDNAKNTVYLQMNSLKPEDTAVYYCNVVFYEYSSVSYDYWGQGTQVTVSS | high polyreactivity
QVQLVESRGGLVQEVGSLRLSCAASGRIFYRYYMGWYRQAPGKERELVASITRSGITHYADSVKGRFTISRDNATNTVYLQMNSLKPEDTAVYYCAVDLLRRGFPTVVTTYDYWGQGTQVTVSS | high polyreactivity
QDQLVESGGGLVQAGGSLRLSCSASGSIFRDKAMGWYRQAPGKERELVAAISIVGSTSYADSVKGRFTISRDNAKNTVYLQMNSLKPEDTAVYYCAADTFYSYYDMDYWGQGTQVTVSS | low polyreactivity
QVQLVESGGGLVQAGGSLRLSCAASGTIFYDNDMGWYRQAPGKERELVAAISWSASDTYYADSVKGRFTISRDNAKNTVYLHINILKPEDTAVYYCNAEVYVWYFVYSALDYWGLGTQVTVSS | low polyreactivity
QDQLVESGGGLVQAGGSLRLSCAASGFTFDRYAMGWYRQAPGKERELVAAITSSGGSTYYADSVKGRFTISRDNAKNTVYLQMNSLKPEDTAVYYCAVAYSSHTSYYSWGQSTQVTVSS | low polyreactivity
